Series [1] has as its system HeLa Kyoto. Nature of the series: thermal stability score vs G1/S (z-score of summed log2 fold changes over temperatures); higher = more thermally stable than in G1/S.
The test system of series [2] is HeLa Kyoto. Nature of the series: solubility in G1/S (NP-40 vs SDS abundance) (log2 ratio); higher = more soluble. The following applies: cell cycle stage: G1/S.
For series [3], the system named is HeLa Kyoto. Nature of the series: melting temperature (median over replicates), in situ; higher = more thermally stable.
The test system of series [4] is HeLa Kyoto. Nature of the series: solubility change mitosis vs G1/S (difference of NP-40 vs SDS log2 ratios) (log2 ratio difference); higher = more soluble in mitosis.
[5] abbreviates: cell cycle stage: early G1 (4.5 h after nocodazole release).
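For melting temperature (median over replicates), in situ in this document: HeLa Kyoto cells synchronized by double thymidine or nocodazole block, proteins quantified by TMT10plex mass spectrometry, three independent biological replicates.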
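For solubility change mitosis vs G1/S (difference of NP-40 vs SDS log2 ratios) in this document: synchronized HeLa Kyoto cells (double thymidine block for G1/S, nocodazole release for mitosis), protein amounts in NP-40 versus SDS lysates quantified by mass spectrometry, three biological replicates.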
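For solubility in G1/S (NP-40 vs SDS abundance) in this document: HeLa Kyoto cells arrested at G1/S by double thymidine block, proteins quantified by TMT10plex mass spectrometry in mild NP-40 versus SDS extracts, three biological replicates.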
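For thermal stability score vs G1/S (z-score of summed log2 fold changes over temperatures) in this document: synchronized HeLa Kyoto cells, proteins quantified by TMT10plex mass spectrometry, three biological replicates, mitosis taken 0.5 h after nocodazole release, G1/S directly after double thymidine block.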

Regarding “MELPSGPGPERLFDSHRLPGDCFLLLVLLLYAPVGFCLLVLRLFLGIHVFLVSCALPDSVLRRFVVRTMCAVLGLVARQEDSGLRDHSVRVLISNHVTPFDHNIVNLLTTCSTPLLNSPPSFVCWSRGFMEMNGRGELVESLKRFCASTRLPPTPLLLFPEEEATNGREGLLRFSSWPFSIQDVVQPLTLQVQRPLVSVTVSDASWVSELLWSLFVPFTVYQVRWLRPVHRQLGEANEEFALRVQQLVAKELGQTGTRLTPADKAEHMKRQRHPRLRPQSAQSSFPPSPGPSPDVQLATLAQRVKEVLPHVPLGVIQRDLAKTGCVDLTITNLLEGAVAFMPEDITKGTQSLPTASASKFPSSGPVTPQPTALTFAKSSWARQESLQERKQALYEYARRRFTERRAQEAD [AUP1]”, the thermal stability score was 0.525 in series [1] (setting [5]) and 0.836 in series [1] (cell cycle stage: mitosis). In addition, the “solubility in G1/S (log2)” value in series [2] is -0.262. Moreover, the values for the melting temperature in series [3] (cell cycle stage: G1/S) and in series [3] (cell cycle stage: mitosis) were 50.9 °C and 50.6 °C, respectively. Also, in series [4], the “solubility change mitosis (log2)” value is -0.102.

For “MELSQMSELMGLSVLLGLLALMATAAVARGWLRAGEERSGRPACQKANGFPPDKSSGSKKQKQYQRIRKEKPQQHNFTHRLLAAALKSHSGNISCMDFSSNGKYLATCADDRTIRIWSTKDFLQREHRSMRANVELDHATLVRFSPDCRAFIVWLANGDTLRVFKMTKREDGGYTFTATPEDFPKKHKAPVIDIGIANTGKFIMTASSDTTVLIWSLKGQVLSTINTNQMNNTHAAVSPCGRFVASCGFTPDVKVWEVCFGKKGEFQEVVRAFELKGHSAAVHSFAFSNDSRRMASVSKDGTWKLWDTDVEYKKKQDPYLLKTGRFEEAAGAAPCRLALSPNAQVLALASGSSIHLYNTRRGEKEECFERVHGECIANLSFDITGRFLASCGDRAVRLFHNTPGHRAMVEEMQGHLKRASNESTRQRLQQQLTQAQETLKSLGALKK [TBL2]”, the figures for the thermal stability score in series [1] (setting [5]) and in series [1] (cell cycle stage: mitosis) were 0.379 and -0.532, respectively. For the same sequence, the “solubility in G1/S (log2)” value in series [2] was -0.571. Moreover, the melting temperature is 51 °C in series [3] (cell cycle stage: G1/S) and 50.4 °C in series [3] (cell cycle stage: mitosis). The “solubility change mitosis (log2)” value in series [4] came out at 0.307.

Consider “MELTIFILRLAIYILTFPLYLLNFLGLWSWICKKWFPYFLVRFTVIYNEQMASKKRELFSNLQEFAGPSGKLSLLEVGCGTGANFKFYPPGCRVTCIDPNPNFEKFLIKSIAENRHLQFERFVVAAGENMHQVADGSVDVVVCTLVLCSVKNQERILREVCRVLRPGGAFYFMEHVAAECSTWNYFWQQVLDPAWHLLFDGCNLTRESWKALERASFSKLKLQHIQAPLSWELVRPHIYGYAVK [METTL7A]”, for which the values for the thermal stability score in series [1] (setting [5]) and in series [1] (cell cycle stage: mitosis) were 0.77 and -0.471, respectively. The “solubility in G1/S (log2)” value in series [2] is -0.294. Further, the melting temperature in series [3] (cell cycle stage: G1/S) came out at 57.6 °C; in series [3] (cell cycle stage: mitosis), 56.8 °C. In addition, in series [4], the “solubility change mitosis (log2)” value was -0.0939.

With “MEMGRRIHLELRNRTPSDVKELVLDNSRSNEGKLEGLTDEFEELEFLSTINVGLTSIANLPKLNKLKKLELSDNRVSGGLEVLAEKCPNLTHLNLSGNKIKDLSTIEPLKKLENLKSLDLFNCEVTNLNDYRENVFKLLPQLTYLDGYDRDDKEAPDSDAEGYVEGLDDEEEDEDEEEYDEDAQVVEDEEDEDEEEEGEEEDVSGEEEEDEEGYNDGEVDDEEDEEELGEEERGQKRKREPEDEGEDDD [ANP32A]”, the values for the thermal stability score in series [1] (setting [5]) and in series [1] (cell cycle stage: mitosis) were 0.819 and 2.54, respectively. Besides, in series [2], the “solubility in G1/S (log2)” value is -0.297. Moreover, the melting temperature in series [3] (cell cycle stage: G1/S) turned out to be 52.3 °C; in series [3] (cell cycle stage: mitosis), 53.2 °C. In addition, the “solubility change mitosis (log2)” value in series [4] is 0.466.

Turning to “MEMPLPPDDQELRNVIDKLAQFVARNGPEFEKMTMEKQKDNPKFSFLFGGEFYSYYKCKLALEQQQLICKQQTPELEPAATMPPLPQPPLAPAAPIPPAQGAPSMDELIQQSQWNLQQQEQHLLALRQEQVTAAVAHAVEQQMQKLLEETQLDMNEFDNLLQPIIDTCTKDAISAGKNWMFSNAKSPPHCELMAGHLRNRITADGAHFELRLHLIYLINDVLHHCQRKQARELLAALQKVVVPIYCTSFLAVEEDKQQKIARLLQLWEKNGYFDDSIIQQLQSPALGLGQYQATLINEYSSVVQPVQLAFQQQIQTLKTQHEEFVTSLAQQQQQQQQQQQQLQMPQMEAEVKATPPPPAPPPAPAPAPAIPPTTQPDDSKPPIQMPGSSEYEAPGGVQDPAAAGPRGPGPHDQIPPNKPPWFDQPHPVAPWGQQQPPEQPPYPHHQGGPPHCPPWNNSHEGMWGEQRGDPGWNGQRDAPWNNQPDAAWNSQFEGPWNSQHEQPPWGGGQREPPFRMQRPPHFRGPFPPHQQHPQFNQPPHPHNFNRFPPRFMQDDFPPRHPFERPPYPHRFDYPQGDFPAEMGPPHHHPGHRMPHPGINEHPPWAGPQHPDFGPPPHGFNGQPPHMRRQGPPHINHDDPSLVPNVPYFDLPAGLMAPLVKLEDHEYKPLDPKDIRLPPPMPPSERLLAAVEAFYSPPSHDRPRNSEGWEQNGLYEFFRAKMRARRRKGQEKRNSGPSRSRSRSKSRGRSSSRSNSRSSKSSGSYSRSRSRSCSRSYSRSRSRSRSRSRSSRSRSRSQSRSRSKSYSPGRRRRSRSRSPTPPSSAGLGSNSAPPIPDSRLGEENKGHQMLVKMGWSGSGGLGAKEQGIQDPIKGGDVRDKWDQYKGVGVALDDPYENYRRNKSYSFIARMKARDECK [CHERP]”, the thermal stability score in series [1] (setting [5]) came to 1.81; in series [1] (cell cycle stage: mitosis), 4.57. Moreover, the “solubility in G1/S (log2)” value in series [2] was -0.174. Further, the melting temperature in series [3] (cell cycle stage: G1/S) is 47.6 °C; in series [3] (cell cycle stage: mitosis), 49.2 °C. Further, in series [4], the “solubility change mitosis (log2)” value amounted to 0.513.

These data come from the supplement of paper PMC5998384.
